Measured values from paper PMC10866687 (2024).

B1: cortactin-GFP (wild type), in 293T cells [not stated] / FLAG-MAP1B-LC1 (wild type) [not stated (human or rat cDNA cloned)] (parent complex)
chain 1: not shown
chain 2: DRSPSPRHPDVSMVDPEALAIEQNLGKALKKDLKEKTKTKKPGTKTKSSSPVKKSDGKSKPLAASPKPAGLKESSDKVSRVASPKKKESVEKAAKPTTTPEVKAARGEEKDKETKNAANASASKSAKTATAGPGTTKTTKSSAVPPGLPVYLDLCYIPNHSNSKNVDVEFFKRVRSSYYVVSGNDPAAEEPSRAVLDALLEGKAQWGSNMQVTLIPTHDSEVMREWYQETHEKQQDLNIMVLASSSTVVMQDESFPACKIEL

Variants of: B1
Assay: coimmunoprecipitation (IP FLAG, immunoblot quantification); n = 4 experiments; parent: 100; read off a plot

Row | Variant | percent of parent
1 | chain 2 P6A, chain 2 R7A | ~78 % of WT
2 | chain 2 P145A, chain 2 P146A | ~36 % of WT
3 | chain 2 K41A, chain 2 P42A | ~76 % of WT
4 | chain 2 K95A, chain 2 P96A | ~110 % of WT
5 | chain 2 K60A, chain 2 P61A | ~120 % of WT
6 | chain 2 P66A, chain 2 K67A, chain 2 P68A | ~93 % of WT
